Measurements as given in patent US8796209B2, “Compositions and methods related to anti-FGF agents” (The Regents of the University of California, priority 2005, dated 2014).

Assays:
[1] = system: Human microvascular endothelial (HMVE) cells; experiment: Tube formation by endothelial cells on Matrigel; assay type: cell-based; settings: 24 h
Procedure: Digital images were taken by using a fluorescent microscope and analyzed by using ImageJ, using human microvascular endothelial (HMVE) cells added to the matrix-coated wells of 96-well plates at 2×10^4 cells/well in medium M-131 plus 0.1% hydrocortisone and 0.1% FBS for. Cells were incubated for 24 h in the presence of wt or mutant FGF. To enhance images, calcein AM was added to the medium.
Wells of 96-well FluoroNunc black plates were coated with 50 μl of matrigel basement membrane matrix (BD Bioscience) and allowed to gel at 37° C. for 30 min. Endothelial cells growing on the tissue culture plastic were trypsinized, washed, and added to the matrix-coated wells at 2×10^4 cells/well. Plating was performed in medium M-131 plus 0.1% hydrocortisone and 0.1% FBS for Human microvascular endothelial (HMVE) cells. Cells were incubated for 24 h in the presence of wt or mutant FGF. To enhance images, calcein AM (Invitrogen) was added to the medium (10 μg/ml) and incubated for 15 min at 37° C. Digital images were taken by using a fluorescent microscope and analyzed by using ImageJ. (FIGS. 9A and 9B).

[2] = system: Balb 3T3 cells; experiment: Chemotaxis assay (Transwell); assay type: cell-based, mouse; settings: for effect of the mutation on FGF-1-induced chemotaxis: 5 ng/ml, 24 h; for Chemotaxis: phenotype of FGF-1 mutants, Table 2
Procedure: The bottom of the polycarbonate filter of the Transwell apparatus was coated with 10 μg/ml of fibronectin. The lower chamber contained 600 μI of serum-free DMEM containing 5 ng/ml wild-type or mutants FGF-1. Balb 3T3 cells (10^5 cells/filter) were plated on filter and incubated 37° C. for 24 h, and cells were stained with crystal violet. Cells that migrated to the bottom side of the membrane were counted. Results are expressed as means of the number of migrated cells in 2 fields.
A polycarbonate filter of 8 μm pore size of the Transwell insert was coated with 10 μg/ml of fibronectin (Sigma) overnight at 4° C. After washing, the insert was placed into a 24-well cell culture plate, and the lower portion of the plate was filled with 600 μl of serum-free DMEM containing 5 ng/ml wild type or mutant FGF-1. Balb 3T3 cells (10^5 cells/filter) were plated on filter and incubated 37° C. for 24 h, and cells were visualized by crystal violet staining (0.5% crystal violet in 50 mM Borate, pH 9.0, and 2% ethanol). The uncoated side of each filter was wiped with a cotton swab to remove cells that had not migrated through the filter. Migrated cells were counted from the digital images of stained cells. Determining the mean number of cells counted per field. Results are expressed as means±SD of the relative cell number with non-stimulated cells set as 100).

[3] = Heparin binding assay (heparin sepharose column, NaCl step elution); settings: for Heparin binding: phenotype of FGF-1 mutants, Table 2
Procedure: (§1) Partially purified wt and mutant FGF1 in 100 mM NaCl and 50 mM Tris (pH 7.4) were applied to a heparin sepharose column (1 ml bed volume). The column was washed with the same buffer and bound proteins were eluted with a stepwise increase in NaCl concentration from 0.1 to 1.2 M. Fractions were analyzed by SDS-polyacrylamide gradient gel electrophoresis. Proteins were visualized by Coomassie Brilliant Blue staining.
as §1, with “Wild type” for “Partially purified wt”, “FGF-1” for “FGF1”, “Tris/HCI” for “Tris”, “to” for “to a”, “with” for “with the”, “buffer,” for “buffer”

[4] = system: ERK1/2; experiment: MAP kinase (ERK1/2) activation, western blot; assay type: cell-based, mouse; settings: for ability to induce ERK1/2 activation: 5 ng/ml, 10 min, with or without 5 μg/ml heparin; for ERK1/2 activation: phenotype of FGF-1 mutants, Table 2
Procedure: Serum starved Balb3T3 cells were stimulated with wild-type and mutant FGF-1s (5 ng/ml) in the presence or absence of 5 μg/ml heparin for 10 min at 37° C. Cell lysates were analyzed by western blotting with anti-phospho ERK1/2 (anti phospho-ERK). Total amount of ERK1/2 in each lane was determined by blotting with anti-ERK1/2. Controls contain medium alone (none) or medium containing 10% fetal calf serum (FCS).
Balb3T3 cells were grown to confluence and serum starved in DMEM supplemented with 0.4% fetal calf serum for 24 h, and stimulated with wild type and mutant FGF-1 (5 ng/ml) in the presence or absence of 5 μg/ml heparin for 10 min at 37° C. Cells were washed twice with ice-cold PBS and lysed with the lysis buffer (20 mM Tris-HCI pH 8.0, 120 mM NaCl, 5 mM EDTA, 0.5% Triton-X100, 1 mM PMSF, 1 mM DTT, 10 mM NaF, 1 mM Na3VO4, 10 μg/ml aprotinin). Cell lysates were separated on 4-12% NuPAGE Bis-Tris Gel (invitrogen). Proteins were then transferred to PVDF membranes (Milli-pore), probed with antibodies, and bound antibodies were detected by HRP-conjugated anti-mouse IgG and chemiluminescence HRP substrate (Pierce). The antibodies used were anti-phospho-ERK1/2, anti-ERK1/2 (Cell Signaling Technology).

[5] = system: Balb 3T3 cells; experiment: DNA synthesis by BrdU incorporation; assay type: cell-based, mouse; settings: for effect of the mutation on FGF-1 induced BrdU incorporation: 5 ng/ml, 5 μg/ml heparin, 24 h; for DNA synthesis: phenotype of FGF-1 mutants, Table 2
Procedure: Balb 3T3 cells were plated on cover slips in 6-well culture plates, serum starved (DMEM, 0.4% fetal calf serum) for 48 h, and stimulated with 5 ng/ml wild-type and mutant FGF-1s in the presence of 5 μg/ml heparin for 24 h. BrdU was added to the medium for the last 6 h of the incubation. Cells were fixed and incubated with anti BrdU antibody. BrdU incorporated cells were stained with DAB. The mean value of BrdU positive cells from wild type-treated culture was set to 100%, and the corresponding results from mutant-treated cultures were scaled accordingly. Results are shown as means±S.D. Asterisks indicate significant differences (p<0.05) compared with wild type treatment.
DNA synthesis was measured by BrdU incorporation. Balb 3T3 cells were plated on sterile cover slips in 6-well culture plates and serum starved in DMEM supplemented with 0.4% fetal calf serum for 48 h, and stimulated with 5 ng/ml wild type and mutant FGF-1s for 24 h in the presence and absence of 5 μg/ml heparin. BrdU (10 μg/ml) was added to the medium for the last 6 h of the incubation. Cells were then fixed with 70% ethanol and incubated with 2N HCI. After the medium was neutralized with 0.1 M borate buffer (pH 8.5), the cells were incubated with anti-BrdU antibody (BD PharMingen, San Diego, Calif.). BrdU incorporated cells were stained with HRP conjugated secondary antibody (Biorad) and metal enhanced diaminobenzidine substrate kit (Pierce, Rockford, Ill.). Diaminobenzidine positive and negative cells were counted from the digital images of three independent fields.

Row | Molecule | tube formation by endothelial cells on matrigel [1] | effect of the mutation on FGF-1-induced chemotaxis [2] | Chemotaxis [2] | effect of the mutation on heparin binding to FGF-1 [3] | Heparin binding [3] | ability to induce ERK1/2 activation [4] | ERK1/2 activation [4] | effect of the mutation on FGF-1 induced BrdU incorporation [5] | DNA synthesis [5]
1 | R50E: FGF-1 mutant with the Arg-50 to Glu (R50E) mutation | block tube formation | blocked | Low | did not | Normal | much less ability | Low | significantly blocked | Low
2 | Wild type: human FGF-1 (acidic FGF), wild type, expressed in E. coli | enhanced |  | Normal |  | Normal |  | Normal |  | Normal
3 | 4xE: FGF-1 mutant, Lys127/Lys128/Lys133/Arg134 simultaneously to Glu (protein) FNLPPGNYKKPKLLYCSNGGHFLRILPDGTVDGTRDRSDQHIQLQLSAESVGEVYIKSTETGQYLAMDTDGLLYGSQTPNEECLFLERLEENHYNTYISKKHAEKNWFVGLEENGSCEEGPRTHYGQKAILFLPLPVSSD |  | blocked | Low | completely blocked | Low | did not induce ERK1/2 activation at all | Low | significantly blocked | Low
4 | 3xA: FGF-1 mutant, three residues in the FGFR binding site (Glu102/Tyr109/Asn110) to Ala (protein) FNLPPGNYKKPKLLYCSNGGHFLRILPDGTVDGTRDRSDQHIQLQLSAESVGEVYIKSTETGQYLAMDTDGLLYGSQTPNEECLFLARLEENHAATYISKKHAEKNWFVGLKKNGSCKRGPRTHYGQKAILFLPLPVSSD |  |  | Low | did not | Normal | did not show ERK1/2 activation | Low | also blocked | Low
